According to patent US20200181211A1:

How the values were obtained:
[1] = target: manually pulled Fn fibers (relaxed, fibrillar fibronectin from human plasma, 5% Fn-Cy5) (human) (UniProt P02751); test: displacement assay on relaxed manually pulled Fn fibers, competitor of FnBPA5-Alexa488
[2] = target: soluble plasma fibronectin (Fn) isolated from human plasma (human) (UniProt P02751); test: fluorescence anisotropy titration, 100 nM labelled peptide, Fn 0 to 1.4 µM in PBS, one-site-binding model
[3] = target: manually pulled Fn fibers (relaxed, fibrillar fibronectin from human plasma, 5% Fn-Cy5) (human) (UniProt P02751); test: titration of fluorescent peptide on relaxed manually pulled Fn fibers, confocal intensity ratio peptide/Fn-Cy5, Hill fit

| Substance | IC50 [1] | Kd [2] | Kd [3] |
| --- | --- | --- | --- |
| natIn-FnBPA5 (cold labeled) (peptide) | 0.049 µM |  |  |
| FnBPA5-Alexa488 (peptide) |  | 0.075 µM | 0.028 µM |
